Results from US7888116B2, “Uses of notch receptors, notch ligands, and notch modulators in methods related to metabolic diseases” (The United States of America as represented by the …, priority 2005, dated 2011).

System: Notch-1 (NICD)
Assay: NICD nuclear translocation in RIN cells (indirect immunofluorescence, immunoblot of nuclear extracts)
Assay type: cell-based, rat
Conditions: RIN cells treated with secretagogues
Protocol: Islet isolation, cell culture and treatments. Adult rat (Sprague-Dawley) and mouse (C57/BL6) islets were isolated by collagenase P digestion and cultured overnight in M199 medium (5 mM glucose). RIN 1046-38 β-cells were cultured as outlined previously (Wang, et al., Endocrinology, 142:1820-1827 (2001)). Isolated human islets came from David Harlan, Transplant Section, NIDDK. Ex-4, GLP-1, CCK (all used at concentrations previously shown to cause maximum insulin release), Ex and the γ-secretase inhibitor, L-685,458, were obtained from Bachem. H89 was from Calbiochem, insulin was from Sigma. The Jagged peptides, R-JAG […] (SEQ ID NO:1), JAG-1 […] (SEQ ID NO:2), and scrambled control peptide without agonist activity, sc-Jagged […] (Nickoloff, et al., Cell Death Differ, 9842-855 (2002)) (SEQ ID NO:3), were synthesised by New England Peptide Inc. […]
RIN cells were permeabilized in Triton-X (0.1%) on ice and blocked for 1 h at room temperature in 3% BSA and 0.1% Tween in PBS. They were incubated overnight at 4° C. with the primary antibody, washed in PBS and incubated with fluorescent labelled secondary antibody for 1 h, washed and mounted with fluorescence mounting medium (Vector Laboratories). […] AlexaFluor antibodies (Molecular Probes; Eugene, Oreg.) were excited with the 488-nm line of a krypton-argon laser and recorded at the presence of emission filter BP515-565 nm. […]

B1: Cholecystokinin (peptide, UniProt P06307 21-115, looked up)
Cholecystokinin: QPVPPADPAGSGLQRAEEAPRRQLRVSQRTDGESRAHLGALLARYIQQARKAPSGRMSIVKNLQNLDPSHRISDRDYMGWMDFGRRSAEEYEYPS
modifications: Cholecystokinin
notes: increases insulin secretion in a non-cAMP dependent manner
- nuclear NICD / NICD translocation: did not increase NICD translocation above that seen with glucose alone
